{"source": "patent US20230212268A1", "about": "(UNM RAINFOREST INNOVATIONS, published 2023)", "binders": {"B1": {"name": "EbovGPscFv4-2 (scFv)", "scFv": "MAWSHPQFEKTGSGGAELVKSGASVKLSCTASGFNIKDDYMHWVKQRPEQGLEWIGWIDPENGDTEYASKFQGKATITADTSSNTAYLQLSSLTSEDTAVYYCTTYYYGSAWFAYWGQGTLVTVSAGGGGSGGGGSGGGGSGGGGSASLSVSVGETVTITCRASGNIHNYLAWYQQKQGKSPQLLVYNAKTLADGVPSRFSGSGSGTQYSLKINNLQPEDFGSYYCQHFWSTPYTFGGGTKLEIKRADAAPTVSIFPPSSEQLTSGGASVVCFLNNFTHCQELQQDECS"}}, "key": {"[1]": {"target": "T1, recombinant EBOV glycoprotein (EBOV (Zaire ebolavirus), UniProt Q05320 33-650)", "T1 sequence": "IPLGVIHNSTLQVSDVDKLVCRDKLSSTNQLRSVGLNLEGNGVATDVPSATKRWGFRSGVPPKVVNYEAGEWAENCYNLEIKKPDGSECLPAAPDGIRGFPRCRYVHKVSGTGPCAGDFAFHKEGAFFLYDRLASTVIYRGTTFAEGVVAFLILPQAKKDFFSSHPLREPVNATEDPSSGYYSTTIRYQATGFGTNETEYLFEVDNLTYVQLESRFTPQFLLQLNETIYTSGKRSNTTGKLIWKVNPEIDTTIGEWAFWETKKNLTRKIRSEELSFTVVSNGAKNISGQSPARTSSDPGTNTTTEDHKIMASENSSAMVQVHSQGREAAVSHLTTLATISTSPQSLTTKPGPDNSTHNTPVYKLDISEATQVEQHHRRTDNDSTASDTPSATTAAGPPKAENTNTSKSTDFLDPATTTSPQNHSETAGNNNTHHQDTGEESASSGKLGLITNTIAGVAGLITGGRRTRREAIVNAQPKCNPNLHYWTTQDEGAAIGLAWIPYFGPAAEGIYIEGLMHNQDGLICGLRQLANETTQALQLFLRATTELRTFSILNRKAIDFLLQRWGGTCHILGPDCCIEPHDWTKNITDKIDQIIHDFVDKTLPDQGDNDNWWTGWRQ", "assay": "ELISA dose response, GP coated"}, "[2]": {"target": "T2, recombinant RESTV glycoprotein (RESTV (Reston ebolavirus), UniProt Q66799 34-651)", "T2 sequence": "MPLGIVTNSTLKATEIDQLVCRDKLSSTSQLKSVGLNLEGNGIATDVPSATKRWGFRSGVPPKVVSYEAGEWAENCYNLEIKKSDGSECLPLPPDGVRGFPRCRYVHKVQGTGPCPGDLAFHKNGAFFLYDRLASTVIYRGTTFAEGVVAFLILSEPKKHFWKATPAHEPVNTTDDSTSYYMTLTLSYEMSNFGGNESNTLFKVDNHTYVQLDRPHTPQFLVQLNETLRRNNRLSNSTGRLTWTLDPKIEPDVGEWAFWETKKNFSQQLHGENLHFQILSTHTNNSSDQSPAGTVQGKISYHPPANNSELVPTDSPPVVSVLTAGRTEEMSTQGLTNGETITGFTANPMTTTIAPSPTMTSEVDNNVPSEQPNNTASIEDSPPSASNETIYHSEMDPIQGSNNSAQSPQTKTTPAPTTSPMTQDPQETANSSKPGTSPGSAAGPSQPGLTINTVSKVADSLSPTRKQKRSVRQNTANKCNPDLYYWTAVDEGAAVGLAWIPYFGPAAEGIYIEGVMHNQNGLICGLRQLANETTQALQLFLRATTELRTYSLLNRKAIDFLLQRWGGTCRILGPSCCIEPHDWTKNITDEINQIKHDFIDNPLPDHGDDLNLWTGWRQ", "assay": "ELISA dose response, GP coated"}, "[3]": {"target": "T3, recombinant SUDV glycoprotein (SUDV (Sudan ebolavirus), UniProt Q7T9D9 33-650)", "T3 sequence": "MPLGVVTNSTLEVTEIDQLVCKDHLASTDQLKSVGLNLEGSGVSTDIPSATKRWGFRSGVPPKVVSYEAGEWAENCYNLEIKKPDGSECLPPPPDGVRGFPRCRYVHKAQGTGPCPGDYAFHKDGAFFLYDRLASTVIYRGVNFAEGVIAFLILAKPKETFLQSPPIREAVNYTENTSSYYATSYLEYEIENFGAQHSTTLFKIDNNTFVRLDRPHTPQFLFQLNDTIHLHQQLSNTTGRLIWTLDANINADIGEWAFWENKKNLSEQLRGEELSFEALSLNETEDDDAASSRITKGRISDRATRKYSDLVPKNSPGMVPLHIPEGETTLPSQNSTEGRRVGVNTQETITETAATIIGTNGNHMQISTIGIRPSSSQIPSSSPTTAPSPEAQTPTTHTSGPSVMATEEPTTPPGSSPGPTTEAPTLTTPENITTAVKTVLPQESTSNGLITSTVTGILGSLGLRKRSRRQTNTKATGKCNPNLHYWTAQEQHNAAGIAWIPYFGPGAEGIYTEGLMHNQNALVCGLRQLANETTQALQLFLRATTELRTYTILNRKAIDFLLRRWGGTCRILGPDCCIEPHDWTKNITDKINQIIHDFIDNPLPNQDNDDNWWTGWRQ", "assay": "ELISA dose response, GP coated"}, "[4]": {"target": "T4, recombinant MARV glycoprotein (MARV (marburgvirus, Ravn), UniProt Q1PDC7 19-648)", "T4 sequence": "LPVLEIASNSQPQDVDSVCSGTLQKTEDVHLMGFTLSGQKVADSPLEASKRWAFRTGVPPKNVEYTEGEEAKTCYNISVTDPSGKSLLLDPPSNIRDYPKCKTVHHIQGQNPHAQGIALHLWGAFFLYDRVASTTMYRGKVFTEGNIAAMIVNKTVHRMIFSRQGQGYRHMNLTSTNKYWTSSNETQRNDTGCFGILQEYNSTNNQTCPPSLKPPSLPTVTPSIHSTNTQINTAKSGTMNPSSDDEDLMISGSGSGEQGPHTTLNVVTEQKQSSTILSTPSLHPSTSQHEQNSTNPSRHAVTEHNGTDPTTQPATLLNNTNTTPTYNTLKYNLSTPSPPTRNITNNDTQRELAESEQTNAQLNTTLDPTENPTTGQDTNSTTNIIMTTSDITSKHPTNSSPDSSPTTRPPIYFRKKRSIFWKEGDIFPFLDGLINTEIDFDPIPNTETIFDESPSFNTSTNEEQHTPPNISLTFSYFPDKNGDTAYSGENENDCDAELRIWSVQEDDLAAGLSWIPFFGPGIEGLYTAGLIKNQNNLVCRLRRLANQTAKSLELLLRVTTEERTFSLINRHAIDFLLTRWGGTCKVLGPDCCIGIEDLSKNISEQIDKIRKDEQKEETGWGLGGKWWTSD", "assay": "ELISA dose response, GP coated"}, "[5]": {"target": "T1, recombinant EBOV glycoprotein", "assay": "maximal binding from ELISA dose-response fit"}, "[6]": {"target": "recombinant BDBV glycoprotein (BDBV (Bundibugyo ebolavirus))", "assay": "maximal binding from ELISA dose-response fit"}, "[7]": {"target": "recombinant BDBV glycoprotein (BDBV (Bundibugyo ebolavirus))", "assay": "ELISA dose response, GP coated"}}, "note": "Several values for one entry are separate records, joined by “and”; a condition that tells them apart may be missing. Equal entries are not always repeated.", "data": [{"binder": "B1", "values": [{"measurement": "EC50", "setting": "[1]", "value": "4.09 µg/mL and < 9 µg/mL"}, {"measurement": "EC50", "setting": "[2]", "value": "< 9 µg/mL and 7.44 µg/mL"}, {"measurement": "EC50", "setting": "[3]", "value": "5.3 µg/mL and < 9 µg/mL"}, {"measurement": "EC50", "setting": "[4]", "value": "4.51 µg/mL and < 9 µg/mL"}, {"measurement": "Bmax signal", "setting": "[5]", "value": 350000, "unit": "relative absorbance units"}, {"measurement": "Bmax signal (relative absorbance units)", "setting": "[6]", "value": 220000}, {"measurement": "EC50", "setting": "[7]", "value": 8.19, "unit": "µg/mL"}]}]}
